What was measured:
[1] = substrate: CC(C)(O/N=C(\C(=O)N[C@@H]1C(=O)N2C(C(=O)[O-])=C(C[n+]3ccccc3)CS[C@H]12)c1csc(N)n1)C(=O)O; assay: (§1) Activity of Escherichia coli CMY-2
[2] = substrate: C[C@@H](O)[C@H]1C(=O)N2C(C(=O)O)=C(S[C@@H]3CN[C@H](C(=O)N(C)C)C3)[C@H](C)[C@H]12; assay: as §1
[3] = substrate: O=C(Cc1cccs1)N[C@@H]1C(=O)N2C(C(=O)[O-])=C(C[n+]3ccccc3)CS[C@H]12; assay: as §1
[4] = substrate: C[C@@H](O)[C@H]1C(=O)N2C(C(=O)O)=C(SCCNC=N)C[C@H]12; assay: as §1
[5] = substrate: O=C(Cc1cccs1)N[C@@H]1C(=O)N2C(C(=O)O)=C(/C=C/c3ccc([N+](=O)[O-])cc3[N+](=O)[O-])CS[C@H]12; assay: as §1
[6] = substrate: CC1(C)S[C@@H]2[C@H](NC(=O)Cc3ccccc3)C(=O)N2[C@H]1C(=O)O; assay: as §1
[7] = substrate: C[C@@H](O)[C@H]1C(=O)N2C(C(=O)O)=C(S[C@@H]3CN[C@H](CNS(N)(=O)=O)C3)[C@H](C)[C@H]12; assay: as §1
[8] = compound: C[C@@H](O)[C@H]1C(=O)N2C(C(=O)O)=C(S[C@@H]3CN[C@H](C(=O)N(C)C)C3)[C@H](C)[C@H]12; assay: (§2) Inhibition of Escherichia coli CMY-2 assessed as inhibition of nitrocefin hydrolysis
[9] = compound: C[C@@H](O)[C@H]1C(=O)N2C(C(=O)O)=C(SCCNC=N)C[C@H]12; assay: as §2
[10] = substrate: CC(C)(O/N=C(\C(=O)N[C@@H]1C(=O)N2C(C(=O)[O-])=C(C[n+]3ccccc3)CS[C@H]12)c1csc(N)n1)C(=O)O; assay: (§3) Kcat/Km ratio of Escherichia coli CMY-2
[11] = substrate: C[C@@H](O)[C@H]1C(=O)N2C(C(=O)O)=C(S[C@@H]3CN[C@H](C(=O)N(C)C)C3)[C@H](C)[C@H]12; assay: as §3
[12] = substrate: O=C(Cc1cccs1)N[C@@H]1C(=O)N2C(C(=O)[O-])=C(C[n+]3ccccc3)CS[C@H]12; assay: as §3
[13] = substrate: C[C@@H](O)[C@H]1C(=O)N2C(C(=O)O)=C(SCCNC=N)C[C@H]12; assay: as §3
[14] = substrate: O=C(Cc1cccs1)N[C@@H]1C(=O)N2C(C(=O)O)=C(/C=C/c3ccc([N+](=O)[O-])cc3[N+](=O)[O-])CS[C@H]12; assay: as §3
[15] = substrate: CC1(C)S[C@@H]2[C@H](NC(=O)Cc3ccccc3)C(=O)N2[C@H]1C(=O)O; assay: as §3
[16] = substrate: C[C@@H](O)[C@H]1C(=O)N2C(C(=O)O)=C(S[C@@H]3CN[C@H](CNS(N)(=O)=O)C3)[C@H](C)[C@H]12; assay: as §3
[17] = substrate: C[C@@H](O)[C@H]1C(=O)N2C(C(=O)O)=C(S[C@@H]3CN[C@H](C(=O)N(C)C)C3)[C@H](C)[C@H]12; assay: (§4) Activity of Pseudomonas aeruginosa AmpC
[18] = substrate: O=C(Cc1cccs1)N[C@@H]1C(=O)N2C(C(=O)[O-])=C(C[n+]3ccccc3)CS[C@H]12; assay: as §4
[19] = substrate: C[C@@H](O)[C@H]1C(=O)N2C(C(=O)O)=C(SCCNC=N)C[C@H]12; assay: as §4
[20] = substrate: O=C(Cc1cccs1)N[C@@H]1C(=O)N2C(C(=O)O)=C(/C=C/c3ccc([N+](=O)[O-])cc3[N+](=O)[O-])CS[C@H]12; assay: as §4
[21] = substrate: CC1(C)S[C@@H]2[C@H](NC(=O)Cc3ccccc3)C(=O)N2[C@H]1C(=O)O; assay: as §4
[22] = substrate: C[C@@H](O)[C@H]1C(=O)N2C(C(=O)O)=C(S[C@@H]3CN[C@H](CNS(N)(=O)=O)C3)[C@H](C)[C@H]12; assay: as §4
[23] = substrate: C[C@@H](O)[C@H]1C(=O)N2C(C(=O)O)=C(S[C@@H]3CN[C@H](C(=O)N(C)C)C3)[C@H](C)[C@H]12; assay: (§5) Kcat/Km ratio of Pseudomonas aeruginosa AmpC
[24] = substrate: O=C(Cc1cccs1)N[C@@H]1C(=O)N2C(C(=O)[O-])=C(C[n+]3ccccc3)CS[C@H]12; assay: as §5
[25] = substrate: C[C@@H](O)[C@H]1C(=O)N2C(C(=O)O)=C(SCCNC=N)C[C@H]12; assay: as §5
[26] = substrate: O=C(Cc1cccs1)N[C@@H]1C(=O)N2C(C(=O)O)=C(/C=C/c3ccc([N+](=O)[O-])cc3[N+](=O)[O-])CS[C@H]12; assay: as §5
[27] = substrate: CC1(C)S[C@@H]2[C@H](NC(=O)Cc3ccccc3)C(=O)N2[C@H]1C(=O)O; assay: as §5
[28] = substrate: C[C@@H](O)[C@H]1C(=O)N2C(C(=O)O)=C(S[C@@H]3CN[C@H](CNS(N)(=O)=O)C3)[C@H](C)[C@H]12; assay: as §5
[29] = compound: C[C@@H](O)[C@H]1C(=O)N2C(C(=O)O)=C(S[C@@H]3CN[C@H](C(=O)N(C)C)C3)[C@H](C)[C@H]12; assay: (§6) Inhibition of Pseudomonas aeruginosa AmpC assessed as inhibition of nitrocefin hydrolysis
[30] = compound: C[C@@H](O)[C@H]1C(=O)N2C(C(=O)O)=C(SCCNC=N)C[C@H]12; assay: as §6
[31] = compound: C[C@@H](O)[C@H]1C(=O)N2C(C(=O)O)=C(S[C@@H]3CN[C@H](CNS(N)(=O)=O)C3)[C@H](C)[C@H]12; assay: as §6

B1: Beta-lactamase (Escherichia coli), Q53TY8 (protein)
chain: MMKKSLCCALLLTASFSTFAAAKTEQQIADIVNRTITPLMQEQAIPGMAVAVIYQGKPYYFTWGKADIANNHPVTQQTLFELGSVSKTFNGVLGGDAIARGEIKLSDPVTKYWPELTGKQWQGIRLLHLATYTAGGLPLQIPDDVRDKAALLHFYQNWQPQWTPGAKRLYANSSIGLFGALAVKPSGMSYEEAMTRRVLQPLKLAHTWITVPQNEQKDYAWGYREGKPVHVSPGQLDAEAYGVKSSVIDMARWVQANMDASHVQEKTLQQGIALAQSRYWRIGDMYQGLGWEMLNWPLKADSIINGSDSKVALAALPAVEVNPPAPAVKASWVHKTGSTGGFGSYVAFVPEKNLGIVMLANKSYPNPVRVEAAWRILEKLQ
[1]
  Km: 4.5 µM
  kcat: 0.0035 s⁻¹
[2]
  kcat: 8.1e-05 s⁻¹
[3]
  Km: 290 µM
  kcat: 710 s⁻¹
[4]
  kcat: < 0.031 s⁻¹
[5]
  Km: 40 µM
  kcat: 1700 s⁻¹
[6]
  Km: 2.2 µM
  kcat: 22 s⁻¹
[7]
  kcat: 7.2e-05 s⁻¹
[8]
  Km: 0.06 µM
[9]
  Km: 0.31 µM
[10]
  kcat/Km: 0.00078 s⁻¹ µM⁻¹
[11]
  kcat/Km: 0.0014 s⁻¹ µM⁻¹
[12]
  kcat/Km: 2.4 s⁻¹ µM⁻¹
[13]
  kcat/Km: 0.1 s⁻¹ µM⁻¹
[14]
  kcat/Km: 43 s⁻¹ µM⁻¹
[15]
  kcat/Km: 10 s⁻¹ µM⁻¹
[16]
  kcat/Km: 0.016 s⁻¹ µM⁻¹

B2: Beta-lactamase (Pseudomonas aeruginosa (strain ATCC 15692 / PAO1 / 1C / PRS 101 / LMG12228)), P24735 (protein)
chain: MRDTRFPCLCGIAASTLLFATTPAIAGEAPADRLKALVDAAVQPVMKANDIPGLAVAISLKGEPHYFSYGLASKEDGRRVTPETLFEIGSVSKTFTATLAGYALTQDKMRLDDRASQHWPALQGSRFDGISLLDLATYTAGGLPLQFPDSVQKDQAQIRDYYRQWQPTYAPGSQRLYSNPSIGLFGYLAARSLGQPFERLMEQQVFPALGLEQTHLDVPEAALAQYAQGYGKDDRPLRVGPGPLDAEGYGVKTSAADLLRFVDANLHPERLDRPWAQALDATHRGYYKVGDMTQGLGWEAYDWPISLKRLQAGNSTPMALQPHRIARLPAPQALEGQRLLNKTGSTNGFGAYVAFVPGRDLGLVILANRNYPNAERVKIAYAILSGLEQQGKVPLKR
[17]
  kcat: < 0.006 s⁻¹
[18]
  Km: 350 µM
[19]
  kcat: < 0.03 s⁻¹
[20]
  Km: 31 µM
  kcat: 150 s⁻¹
[21]
  Km: 14 µM
[22]
  kcat: < 0.006 s⁻¹
[23]
  kcat/Km: < 0.0043 s⁻¹ µM⁻¹
[24]
  kcat/Km: 0.27 s⁻¹ µM⁻¹
[25]
  kcat/Km: < 4.8 s⁻¹ µM⁻¹
[26]
  kcat/Km: 4.8 s⁻¹ µM⁻¹
[27]
  kcat/Km: 3.1 s⁻¹ µM⁻¹
[28]
  kcat/Km: < 0.0033 s⁻¹ µM⁻¹
[29]
  Km: 1.4 µM
[30]
  Km: 1.6 µM
[31]
  Km: 1.8 µM

From ChEMBL document CHEMBL1212772
